Laboratory results published in patent US20030235863A1 (published 2003).
No end group written: not given here. *: point of attachment. For = O=C*

B2: formyl peptide receptor (FPR), wild type, solubilized in dodecyl maltoside (receptor, human, UniProt P21462 1-350, looked up)
chain: METNSSLPTNISGGTPAVSAGYLFLDIITYLVFAVTFVLGVLGNGLVIWVAGFRMTHTVTTISYLNLAVADFCFTSTLPFFMVRKAMGGHWPFGWFLCKFVFTIVDINLFGSVFLIALIALDRCVCVLHPVWTQNHRTVSLAKKVIIGPWVMALLLTLPVIIRVTTVPGKTGTVACTFNFSPWTNDPKERINVAVAMLTVRGIIRFIIGFSAPMSIVAVSYGLIATKIHKQGLIKSSRPLRVLSFVAAAFFLCWSPYQVVALIATVRIRELLQGMYKEIGIAVDVTSALAFFNSCLNPMLYVFMGQDFRERLIHALPASLERALTEDSTQTSDTATNSTLPSAEVELQAK
notes: Crude detergent extract of membranes, not purified; the extract holds endogenous G protein subunits; also called wild type receptor; soluble FPR
B4: FPR-GFP fusion protein (receptor)
chain: METNSSLPTNISGGTPAVSAGYLFLDIITYLVFAVTFVLGVLGNGLVIWVAGFRMTHTVTTISYLNLAVADFCFTSTLPFFMVRKAMGGHWPFGWFLCKFVFTIVDINLFGSVFLIALIALDRCVCVLHPVWTQNHRTVSLAKKVIIGPWVMALLLTLPVIIRVTTVPGKTGTVACTFNFSPWTNDPKERINVAVAMLTVRGIIRFIIGFSAPMSIVAVSYGLIATKIHKQGLIKSSRPLRVLSFVAAAFFLCWSPYQVVALIATVRIRELLQGMYKEIGIAVDVTSALAFFNSCLNPMLYVFMGQDFRERLIHALPASLERALTEDSTQTSDTATNSTLPSAEVELQAKAAA
notes: Solubilized in dodecyl maltoside from membranes of transfected cells; also called R^F; fluorescent formyl peptide receptor; not shown: Clontech's EGFP (enhanced green fluorescent protein), from its first amino acid

How the values were obtained:
[1] = biological target: B2; test: spectrofluorimetry, soluble FPR in dodecyl maltoside, free ligand quenched by anti-FITC antibody
Text: For accurate analysis, and for kinetic dissociation analysis, the percent of the control curve corresponding to the percent free ligand was subtracted from the receptor-containing curve.
The free ligand and bound ligand were discriminated using an antibody to fluorescein that rapidly quenched only the free ligand.

[2] = biological target: T1, C-terminal hexahistidine-tagged FPR (human, UniProt P21462 1-350); test: receptor on DCNi beads, flow cytometry with rapid mixer, anti-FITC antibody added
T1 construct: Construct limits and junction are not described; also called FPR:C-H6; C-H6:FPR
T1 sequence: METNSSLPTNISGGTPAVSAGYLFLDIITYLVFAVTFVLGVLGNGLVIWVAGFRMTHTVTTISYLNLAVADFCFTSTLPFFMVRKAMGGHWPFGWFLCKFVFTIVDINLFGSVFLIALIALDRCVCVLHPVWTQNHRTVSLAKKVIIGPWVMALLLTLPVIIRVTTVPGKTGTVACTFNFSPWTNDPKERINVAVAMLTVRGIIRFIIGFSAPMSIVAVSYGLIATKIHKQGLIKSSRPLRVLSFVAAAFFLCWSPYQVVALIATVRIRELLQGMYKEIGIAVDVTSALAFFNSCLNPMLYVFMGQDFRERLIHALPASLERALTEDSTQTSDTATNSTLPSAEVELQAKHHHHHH

[3] = biological target: T1, C-terminal hexahistidine-tagged FPR; test: receptor on DCNi beads, flow cytometry
[4] = biological target: T2, N-terminal hexahistidine-tagged FPR (human, UniProt P21462 1-350); test: receptor on DCNi beads, flow cytometry
T2 construct: Construct limits and junction are not described; also called N-H6:FPR
T2 sequence: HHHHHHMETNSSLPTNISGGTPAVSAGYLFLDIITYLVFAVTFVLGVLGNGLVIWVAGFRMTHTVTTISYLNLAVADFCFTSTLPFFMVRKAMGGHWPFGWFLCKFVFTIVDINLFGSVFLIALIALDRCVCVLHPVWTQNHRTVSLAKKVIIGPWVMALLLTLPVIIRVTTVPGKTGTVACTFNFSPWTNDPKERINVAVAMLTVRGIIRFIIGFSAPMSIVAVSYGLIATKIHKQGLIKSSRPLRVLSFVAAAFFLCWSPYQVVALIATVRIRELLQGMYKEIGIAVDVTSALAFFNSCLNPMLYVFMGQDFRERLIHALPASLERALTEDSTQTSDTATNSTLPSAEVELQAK

[5] = biological target: B2; test: soluble receptor in detergent, spectrofluorimetry, dissociation of L^F
Procedure: (§1) Spectrofluorimetric Analysis of Soluble Complexes. Fluorescence was measured with an SLM 8000 spectrofluorimeter (SLM Instruments, Inc.) using the photon counting mode. The sample holder was fitted with a cylindrical cuvette adapter, which allowed the use of 200 μl samples in 7mm ×45 mm cylindrical cuvettes (Sienco; Wheat Ridge, Colo.), stirred with 2×5 mm stir bars (Bel-Art). Excitation was at 490 nm, and stray light was reduced with a 490+/−10 nm filter (Corion; now part of Spectra-Physics, Franklin, Mass.). Emission was monitored using a 520+/−10 nm filter (Corion) and a 500 nm long-pass filter (Kopp; Pittsburg, Pa.). Additions to samples during kinetic measurements were made through an injection port on the top of the sample holder with 10 μl glass syringes (Hamilton; Reno, Nev.). […] For accurate analysis, and for kinetic dissociation analysis, the percent of the control curve corresponding to the percent free ligand was subtracted from the receptor-containing curve.

[6] = biological target: T1, C-terminal hexahistidine-tagged FPR; test: soluble receptor in detergent, spectrofluorimetry
Procedure: as §1

[7] = biological target: T2, N-terminal hexahistidine-tagged FPR; test: soluble receptor in detergent, spectrofluorimetry
Procedure: as §1

[8] = biological target: B2; test: soluble receptor in detergent, spectrofluorimetry
Procedure: as §1

[9] = biological target: T1, C-terminal hexahistidine-tagged FPR; test: soluble receptor in detergent, dissociation of L^F
[10] = biological target: T2, N-terminal hexahistidine-tagged FPR; test: soluble receptor in detergent, dissociation of L^F
[11] = biological target: B2; test: spectrofluorimetric competition with L^F for soluble FPR; IC50 converted to Kd
Procedure: as §1
(§2) Comparison of LR and LRG Affinities for a Family of Non-fluorescent Ligands.

FPR-GFP fusion protein [12] = biological target: B4; test: flow cytometry, LRG assembly on DCNi G beads with 30 nM FPR-GFP
Procedure: Standard LRG Assembly Assay. […] Each mixture was mixed by pipetting to ensure a uniform starting suspension of the beads in 96 V-well plates (Costar), and then mixed at low speed on a vortex mixer at 7° for two hours. The 10 μl assays were individually brought to 200 μl with 0.1% dodecyl maltoside in buffer A in 12×75 mm tubes for flow cytometric measurement of fluorescence of the beads. LRG assembly was defined as the difference between fluorescence without GTPγS and that with GTPγS. All determinations were done in duplicate.

FPR-GFP fusion protein [13] = biological target: B4; test: Kd from competition on soluble FPR divided by EC50 of LRG assembly with FPR-GFP
Text: as §2

Gαi3β4γ2H6-FLAG = biological target: T3, Gαi3β4γ2H6-FLAG; test: flow cytometry, LRG assembly on anti-FLAG beads
T3 construct: Held on streptavidin-coated polystyrene beads through a biotinylated anti-FLAG antibody; also called αi3β4γ2-FLAG-H6
T3 sequence (P08753 2-354, chain 1 of 3): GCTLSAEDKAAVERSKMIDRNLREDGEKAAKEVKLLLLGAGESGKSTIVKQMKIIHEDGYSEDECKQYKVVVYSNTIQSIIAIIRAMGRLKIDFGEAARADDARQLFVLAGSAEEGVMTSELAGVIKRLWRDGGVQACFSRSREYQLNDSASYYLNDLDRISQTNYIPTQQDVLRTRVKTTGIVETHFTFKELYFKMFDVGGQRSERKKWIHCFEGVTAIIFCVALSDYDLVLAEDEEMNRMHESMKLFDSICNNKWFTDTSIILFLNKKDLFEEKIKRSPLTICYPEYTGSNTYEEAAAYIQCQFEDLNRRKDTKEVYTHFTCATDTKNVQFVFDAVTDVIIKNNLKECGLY
T3 sequence (P29387 2-340, chain 2 of 3, further chain): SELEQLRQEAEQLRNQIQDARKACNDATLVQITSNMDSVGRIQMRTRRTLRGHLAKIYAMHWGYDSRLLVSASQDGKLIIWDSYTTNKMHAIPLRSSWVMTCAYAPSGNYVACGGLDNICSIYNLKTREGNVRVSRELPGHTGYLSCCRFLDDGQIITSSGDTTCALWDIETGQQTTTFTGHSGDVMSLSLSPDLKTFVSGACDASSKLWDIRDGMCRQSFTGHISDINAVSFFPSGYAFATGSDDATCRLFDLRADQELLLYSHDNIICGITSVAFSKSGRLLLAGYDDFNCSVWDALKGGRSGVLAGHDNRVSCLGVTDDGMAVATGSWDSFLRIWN
T3 sequence (P63212 2-68, chain 3 of 3, further chain): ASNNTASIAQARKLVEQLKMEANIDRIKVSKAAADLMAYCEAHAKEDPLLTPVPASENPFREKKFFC

[14] = biological target: G protein heterotrimer αi3β1H6γ2 on DCNi beads; test: flow cytometry, L^FRG assembly on DCNi G beads
G protein heterotrimer αi3β1H6γ2 on DCNi beads, sequence (chain, as listed by the source, chain 1 of 3): as the sequence (P08753 2-354, chain 1 of 3) above
G protein heterotrimer αi3β1H6γ2 on DCNi beads, sequence (chain, as listed by the source, chain 2 of 3): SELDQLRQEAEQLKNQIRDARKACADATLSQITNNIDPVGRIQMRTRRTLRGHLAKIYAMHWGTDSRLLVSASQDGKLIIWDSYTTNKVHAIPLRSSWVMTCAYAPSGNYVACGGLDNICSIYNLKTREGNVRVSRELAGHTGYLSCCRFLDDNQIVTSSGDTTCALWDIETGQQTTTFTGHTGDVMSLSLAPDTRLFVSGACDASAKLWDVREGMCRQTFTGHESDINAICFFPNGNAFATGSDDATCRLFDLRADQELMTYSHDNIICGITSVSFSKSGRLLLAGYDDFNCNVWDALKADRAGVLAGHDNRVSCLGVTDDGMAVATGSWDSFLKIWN
G protein heterotrimer αi3β1H6γ2 on DCNi beads, sequence (chain, as listed by the source, chain 3 of 3): as the sequence (P63212 2-68, chain 3 of 3, further chain) above

[15] = biological target: G protein heterotrimer αi3β1H6γ2 on DCNi beads; test: flow cytometry, standard LRG assembly on nickel beads
[16] = biological target: β1H6γ2 dimer on DCNi beads; test: flow cytometry, βγ-coated DCNi beads, 1 µM GTP (bar 6) against GTPγS (bar 2)
β1H6γ2 dimer on DCNi beads, sequence (chain, as listed by the source, chain 1 of 2): as the sequence (chain, as listed by the source, chain 2 of 3) above
β1H6γ2 dimer on DCNi beads, sequence (chain, as listed by the source, chain 2 of 2): as the sequence (P63212 2-68, chain 3 of 3, further chain) above

[17] = biological target: G protein heterotrimer αi3β1H6γ2 on DCNi beads; test: flow cytometry, standard assembly (bar 3) against GTPγS (bar 4)

B1: formyl-MLFK-FITC (peptide)
peptide: For-MLFK
modifications: also: FITC conjugated, site not given here
notes: everywhere else it is fMLFK-FITC; also called fMLFK-FITC; fluorescent ligand
Kd [1]: 4.8 nM | t1/2 (dissociation halftime) [2]: 14 s | Kd [3]: 4 nM | Kd [4]: 8 nM | t1/2 (dissociation halftime) [5]: 14 s | Kd [6]: 10 nM | Kd [7]: 7 nM | Kd [8]: 5 nM | t1/2 (dissociation halftime) [9]: 14 s | t1/2 (dissociation halftime) [10]: 15 s

For-MLFF [fMLFF]
Kd [11]: 75 nM | EC50 (FPR-GFP fusion protein [12]): 27 nM | ratio of Kd (for LR) to EC50 (for LRG formation) (FPR-GFP fusion protein [13]): 2.8 ratio

B2
ratio of total signal to nonspecific signal (Gαi3β4γ2H6-FLAG): 3 ratio | signal to background [14]: ≤ 4 ratio | ratio of total signal to nonspecific signal [15]: 3 ratio

B3: FPR-Giα2 fusion protein (receptor, human;rat)
chain: METNSSLPTNISGGTPAVSAGYLFLDIITYLVFAVTFVLGVLGNGLVIWVAGFRMTHTVTTISYLNLAVADFCFTSTLPFFMVRKAMGGHWPFGWFLCKFVFTIVDINLFGSVFLIALIALDRCVCVLHPVWTQNHRTVSLAKKVIIGPWVMALLLTLPVIIRVTTVPGKTGTVACTFNFSPWTNDPKERINVAVAMLTVRGIIRFIIGFSAPMSIVAVSYGLIATKIHKQGLIKSSRPLRVLSFVAAAFFLCWSPYQVVALIATVRIRELLQGMYKEIGIAVDVTSALAFFNSCLNPMLYVFMGQDFRERLIHALPASLERALTEDSTQTSDTATNSTLPSAEVELQAKAAAMGCTVSAEDKAAAERSKMIDKNLREDGEKAAREVKLLLLGAGESGKSTIVKQMKIIHEDGYSEEECRQYRAVVYSNTIQSIMAIVKAMGNLQIDFADPQRADDARQLFALSCAAEEQGMLPEDLSGVIRRLWADHGVQACFGRSREYQLNDSAAYYLNDLERIAQSDYIPTQQDVLRTRVKTTGIVETHFTFKDLHFKMFDVGGQRSERKKWIHCFEGVTAIIFCVALSAYDLVLAEDEEMNRMHESMKLFDSICNNKWFTDTSIILFLNKKDLFEEKITQSPLTICFPEYTGANKYDEAASYIQSKFEDLNKRKDTKEIYTHFTCATDTKNVQFVFDAVTDVIIKNNLKDCGLF
notes: Solubilized in dodecyl maltoside; also called FPR-αi2; FPR-Gαi2
total fluorescence to background ratio [16]: 2.7 ratio

B4
total binding to background ratio [17]: 4.9 ratio
